The values that follow come from patent US10933119B2, “Aortopathy” (University of Leicester, priority 2015, dated 2021).

Series [1] relates to leukocytes in peripheral blood. The experiment in a line: Number of leukocytes in peripheral blood after GM-CSF blockade by neutralizing antibody. Set-up: Lymphocytes in peripheral blood: unit not given here. The settings on record: KLF6fl/fl;LysM Cre mice, CaCl2 + AngII. The series is classed as in vivo. On the procedure:
(§1) To induce aortic dissection/intramural hematoma, peri-aortic application of CaCl2 was done to the abdominal aorta, followed by two-week infusion of AngII (2000 ng kg−1 min−1) (40). In detail, mice were anesthetized and underwent laparotomy at 10- to 13-weeks of age. The abdominal aorta between the renal arteries and bifurcation of the iliac arteries was isolated from the surrounding retroperitoneal structure, and 0.5 M CaCl2 was applied to the external surface of the infrarenal aorta. NaCl (0.9%) was substituted for CaCl2 in sham control mice. The aorta was rinsed with 0.9% sterile saline after 15 min and the incision was closed.
(§2) Wild-type mice were injected intraperitoneally with 110 mg kg−1 of clodronate liposomes or equal volume of PBS liposomes 2 days prior and 7 days after induction of aortic dissection. Neutralizing antibody against GM-CSF (300 μg, R&D systems) or control anti-rat IgG antibody (Equitech Bio) was administered every other day by intraperitoneal injection. Recombinant murine GM-CSF (10, 50, 100 μg kg−1 day−1, PeproTech) was administered for two weeks or four weeks after induction of aortic dissection.
Aortas were minced into 3- to 4-mm pieces and placed in 1 ml digestion solution containing collagenase type II (1.25 mg ml−1, Worthington) and porcine pancreatic elastase (50 μg ml−1, Worthington) in base solution of Accumax (Innovative Cell Technologies). Aortic tissue was digested at room temperature with agitation for 1 h. After digestion, cells were washed in FACS buffer (5% FCS in PBS) at 2000 rpm for 5 min. Aortic macrophages were isolated using CD11b microbeads according to the manufacturer's instructions (Miltenyi Biotec). Spleen was homogenized and passed through a cell strainer to obtain single-cell suspensions. Bone marrow-derived cells were taken from the femur and tibia of 5- to 6-week-old mice. Blood was collected in heparin-coated vials and then 1.2% dextran was added for 45 min at room temperature. Counting of peripheral leukocytes was done by automated hematology analyzer (XT-2000i, Sysmex). […]

Series [2] is described as follows: Plasma GM-CSF concentration (ELISA) after recombinant GM-CSF infusion. Conditions: wild-type mice. In kind it is in vivo. As for the experimental part:
as §2
Plasma levels of IL-6, MCP-1 and GM-CSF in mice or in humans with or without aortic dissection/intramural hematoma were assayed with commercially available quantikine ELISA kits (R&D systems) according to the manufacturer's instructions. Sera of healthy volunteers and of patients with aortic aneurysm, coronary artery disease or with aortic dissection were obtained with informed consent under a protocol approved by the University of Tokyo hospital research ethics committee.
(In general: In an ELISA, binding on a coated surface is turned into a signal by an enzyme label.)

The next series concerns wild-type mice. The experiment in a line: Murine aortic dissection/intramural hematoma model with recombinant GM-CSF administration. In kind it is in vivo. As for the experimental part:
as §1, §2
Aortas from mice were embedded in paraffin then 5-μm-thick serial sections were prepared for Elastic Von Gienson (EVG) and hematoxylin/eosin (HE) staining. Digital images of EVG-stained aortas with reference scale were used for absolute measurement of diameter. Human aortic tissue was obtained from patients undergoing surgical aortic repair with informed consent under a protocol approved by the University of Tokyo hospital research ethics committee. Paraffin-embedded sections were taken from the aorta for EVG staining and immunohistochemistry. […]

For series [3], the system named is leukocytes in peripheral blood. The experiment in a line: Number of leukocytes in peripheral blood after GM-CSF administration. The series is classed as in vivo, mice. Also noted: Lymphocytes in peripheral blood: unit not given here. Conditions: for Lymphocytes in peripheral blood / Monocytes in peripheral blood / Neutrophils in peripheral blood: wild type mice. On the procedure: as §1, §2
Aortas were minced into 3- to 4-mm pieces and placed in 1 ml digestion solution containing collagenase type II (1.25 mg ml−1, Worthington) and porcine pancreatic elastase (50 μg ml−1, Worthington) in base solution of Accumax (Innovative Cell Technologies). Aortic tissue was digested at room temperature with agitation for 1 h. After digestion, cells were washed in FACS buffer (5% FCS in PBS) at 2000 rpm for 5 min. Aortic macrophages were isolated using CD11b microbeads according to the manufacturer's instructions (Miltenyi Biotec). Spleen was homogenized and passed through a cell strainer to obtain single-cell suspensions. Bone marrow-derived cells were taken from the femur and tibia of 5- to 6-week-old mice. Blood was collected in heparin-coated vials and then 1.2% dextran was added for 45 min at room temperature. Counting of peripheral leukocytes was done by automated hematology analyzer (XT-2000i, Sysmex). Neutrophils were isolated from bone marrow using a neurophil isolation kit according to the manufacturer's instructions (Miltenyi Biotec). From single-cell suspensions of spleen, bone marrow and blood, erythrocytes were lysed using ACK lysis buffer for 5, 3 and 2 min on ice, respectively. Cells were centrifuged at 2000 rpm for 5 min to remove the ACK lysis buffer, then the single-cell suspensions were resuspended and washed in FACS buffer, followed by centrifugation at 2000 rpm for 5 min.

B1: GM-CSF: Recombinant murine GM-CSF (PeproTech), granulocyte macrophage colony-stimulating factor (protein, UniProt P01587 18-141, looked up)
Granulocyte-macrophage …: APTRSPITVTRPWKHVEAIKEALNLLDDMPVTLNEEVEVVSNEFSFKKLTCVQTRLKIFEQGLRGNFTKLKGALNMTASYYQTYCPPTPETDCETQVTTYADFIDSLKTFLTDIPFECKKPGQK
Take B1: the “Lymphocytes in peripheral blood” value came to 1843.3 ± 311.1 in series [1]; 1803.3 ± 124.0 in series [3] (CaCl2 + AngII, 5 days); 1667.2 ± 371.3 in series [3] (CaCl2 + AngII, 14 days); 3150.0 ± 234.5 in series [3] (Sham, 5 days); 3052.0 ± 420.3 in series [3] (Sham, 14 days). For the same molecule, the Monocytes in peripheral blood in series [1] is 82.5 ± 12.5 cells/µL; in series [3] (CaCl2 + AngII, 5 days), 387 ± 112 cells/µL; in series [3] (CaCl2 + AngII, 14 days) it was 310 ± 45.9 cells/µL; in series [3] (Sham, 5 days), 353 ± 103 cells/µL; in series [3] (Sham, 14 days), 295 ± 66.2 cells/µL. The Neutrophils in peripheral blood in series [1] came to 786 ± 118 cells/µL; in series [3] (CaCl2 + AngII, 5 days), 1690 ± 147 cells/µL; in series [3] (CaCl2 + AngII, 14 days), 1050 ± 259 cells/µL; in series [3] (Sham, 5 days) it was 2540 ± 454 cells/µL; in series [3] (Sham, 14 days), 976 ± 117 cells/µL. Moreover, the “increased circulating levels of GM-CSF” value in series [2] (GM-CSF alone, 2 weeks infusion) is on record as “at least 180.9 fold”. Further, the “circulating levels of GM-CSF” value in series [2] (combination of GM-CSF with CaCl2 + AngII compared to each alone) is “markedly elevated”. In addition, the aortic dissection/intramural hematoma entry in the series on wild-type mice (wild-type mice subjected to aortic inflammation (CaCl2+AngII) plus GM-CSF) is “caused”; with wild-type mice (wild-type mice, administration of GM-CSF alone), “did not develop”. The death of mice entry with wild-type mice (wild-type mice, GM-CSF with CaCl2+AngII) is “died from aortic rupture”. The “number of neutrophils in peripheral blood” value was “no difference” in series [3] (14 days of GM-CSF administration) and “markedly increased” in series [3] (GM-CSF administration, early phase). Moreover, the “number of circulating lymphocytes” value in series [3] (GM-CSF administration, early phase (5 days) or developed phase (14 days)) was “did not change”.
